Reference: patent US20170275356A1 (Eli Lilly, published 2017)
Several values for one entry are separate records, joined by “and”; a condition that tells them apart may be missing. Equal values may be shown once.

Legend:
human IL-23 [1] = biological target: T1, human IL-23 (human, UniProt P29460 23-328); assay: cell-based or functional assay
T1 sequence 1: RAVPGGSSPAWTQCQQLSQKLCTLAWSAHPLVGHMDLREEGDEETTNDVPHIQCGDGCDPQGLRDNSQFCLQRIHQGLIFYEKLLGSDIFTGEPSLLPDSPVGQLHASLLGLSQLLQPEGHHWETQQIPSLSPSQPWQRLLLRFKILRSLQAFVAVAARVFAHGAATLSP
T1 sequence 2: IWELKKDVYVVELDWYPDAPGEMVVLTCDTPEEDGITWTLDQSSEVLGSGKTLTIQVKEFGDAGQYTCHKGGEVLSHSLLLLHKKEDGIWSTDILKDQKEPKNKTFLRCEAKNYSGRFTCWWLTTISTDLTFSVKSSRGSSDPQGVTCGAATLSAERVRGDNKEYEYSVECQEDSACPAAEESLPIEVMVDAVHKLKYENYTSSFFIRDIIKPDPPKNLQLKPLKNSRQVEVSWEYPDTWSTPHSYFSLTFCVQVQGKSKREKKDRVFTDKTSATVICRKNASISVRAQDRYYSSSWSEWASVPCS

cynomolgus monkey IL-23 [2] = biological target: cynomolgus monkey IL-23 (cynomolgus monkey); assay: cell-based or functional assay
rabbit IL-23 = biological target: T2, rabbit IL-23 (rabbit); assay: SPR (BIAcore 2000), Antibody I captured on Protein A, IL-23 injected, 37 °C, n=2
T2 construct: Construct not described
Procedure: (§1) Antibody affinity (KD) to human, cynomolgus monkey or rabbit IL-23 is determined using a BIAcore Biosensor 2000 and BIAevaluation software with a 1:1 binding with mass transfer model. A capture protein (Protein A, Calbiochem) is coupled via free amine groups to carboxyl groups on flow cells 1 and 2 of a CM4 biosensor chip using a mixture of N-ethyl-N-(dimethylaminopropyl)-carbodiimide (EDC) and N-hydroxysuccinimide (NHS). Flow cells are monitored with a flow rate of 80 μL/minute using a buffer containing 0.01 M HEPES, pH 7.4, 150 mM NaCl, 0.005% surfactant P20. Antibody I is captured on flow cell 2 to yield a total of 40 to 60 response units (RU). Multiple cycles of increasing concentrations of IL-23 are then injected over flow cells 1 and 2 (0.62 nM to 30 nM for human and monkey IL-23 and 30 nM to 240 nM for rabbit IL-23) followed by a regeneration step using glycine-HCl (pH 1.5) between each cycle. Flow cell 1 is used as a control to monitor non-specific binding of IL-23 and the data reflects flow cell 2 minus flow cell 1. Each cycle includes an antibody capture step followed by injection of IL-23 at one concentration with a 30 minute dissociation period, then regeneration. Two cycles where buffer is injected in place of IL-23, serve as a control for baseline subtraction and correct for drift associated with the dissociation of Antibody I from the protein A surface. Affinity is measured at 37 ° C. The assay is performed 2 times with human, monkey or rabbit IL-23. Antibody I is tested 2 times each with mouse IL-23 at 333 nM, rat IL-23 at 200 nM, human IL-12 at 333 nM, human IL-27 at 500 nM or human IL-35 at 833 nM.
(§2) The on-rate (kₒₙ) and off-rate (koff) for each antigen are evaluated using a 1:1 binding with mass transfer model. The affinity (KD) is calculated from the binding kinetics according to the relationship: KD=koff/kₒₙ.

human IL-23 [3] = biological target: T1, human IL-23; assay: as above
Procedure: as §1, §2

cynomolgus monkey IL-23 [4] = biological target: T3, cynomolgus monkey IL-23 (cynomolgus monkey); assay: as above
T3 construct: Construct not described
Procedure: as §1, §2

human IL-23 [5] = biological target: T1, human IL-23; assay: cell-based or functional assay; remark: listed apart in the source
human IL-27 = biological target: T4, human IL-27 (human, UniProt Q8NEV9 29-243; Q14213 21-229); assay: SPR (BIAcore), Antibody I captured on Protein A, 37 °C
T4 construct: subunit make-up is from general knowledge
T4 sequence (looked up) 1: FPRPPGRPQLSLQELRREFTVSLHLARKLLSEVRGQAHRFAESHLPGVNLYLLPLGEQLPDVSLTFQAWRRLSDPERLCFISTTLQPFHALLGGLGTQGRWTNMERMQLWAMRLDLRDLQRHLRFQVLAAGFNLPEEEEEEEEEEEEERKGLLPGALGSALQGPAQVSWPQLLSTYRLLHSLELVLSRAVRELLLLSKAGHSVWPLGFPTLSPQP
T4 sequence (looked up) 2: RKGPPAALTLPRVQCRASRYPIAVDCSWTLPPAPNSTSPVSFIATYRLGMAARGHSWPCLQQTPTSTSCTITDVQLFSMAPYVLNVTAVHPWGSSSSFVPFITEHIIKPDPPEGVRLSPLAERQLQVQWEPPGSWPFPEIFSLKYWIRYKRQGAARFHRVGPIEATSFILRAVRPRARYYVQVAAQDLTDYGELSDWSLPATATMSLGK
Procedure: as §1
(§3) Antibody I produces a concentration-dependent binding response with human, cynomolgus monkey, and rabbit IL-23 using this method. Saturation of binding of IL-23 is attained at a concentration of 30 nM (human and monkey) and 240 nM (rabbit) using […] of Antibody I captured on the chip surface.

human IL-12 = biological target: T5, human IL-12 (human, UniProt P29459 23-219; P29460 23-328); assay: as above
T5 construct: construct not described
T5 sequence (looked up) 1: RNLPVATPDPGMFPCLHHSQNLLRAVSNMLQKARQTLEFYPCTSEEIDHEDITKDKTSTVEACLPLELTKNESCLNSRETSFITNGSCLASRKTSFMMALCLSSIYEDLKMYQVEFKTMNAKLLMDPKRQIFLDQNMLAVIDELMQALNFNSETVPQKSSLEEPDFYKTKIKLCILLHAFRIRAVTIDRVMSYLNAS
T5 sequence (looked up) 2: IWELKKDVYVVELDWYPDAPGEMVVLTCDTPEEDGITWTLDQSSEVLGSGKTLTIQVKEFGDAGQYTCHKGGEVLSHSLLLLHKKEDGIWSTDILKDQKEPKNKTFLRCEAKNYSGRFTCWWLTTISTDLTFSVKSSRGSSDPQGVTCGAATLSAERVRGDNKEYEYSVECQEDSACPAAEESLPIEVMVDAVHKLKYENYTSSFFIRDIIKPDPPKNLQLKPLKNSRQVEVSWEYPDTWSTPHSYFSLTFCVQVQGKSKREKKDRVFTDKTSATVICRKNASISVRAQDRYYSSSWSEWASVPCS
Procedure: as §1, §3

mouse IL-23 = biological target: T6, mouse IL-23 (mouse, UniProt Q9EQ14 22-196; P43432 23-335); assay: as above
T6 construct: Construct not described
T6 sequence (looked up) 1: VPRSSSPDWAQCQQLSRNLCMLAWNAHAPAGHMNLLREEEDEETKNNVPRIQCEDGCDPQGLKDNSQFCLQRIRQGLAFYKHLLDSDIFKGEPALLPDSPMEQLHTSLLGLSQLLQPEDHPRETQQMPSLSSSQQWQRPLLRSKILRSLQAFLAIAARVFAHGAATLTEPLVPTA
T6 sequence (looked up) 2: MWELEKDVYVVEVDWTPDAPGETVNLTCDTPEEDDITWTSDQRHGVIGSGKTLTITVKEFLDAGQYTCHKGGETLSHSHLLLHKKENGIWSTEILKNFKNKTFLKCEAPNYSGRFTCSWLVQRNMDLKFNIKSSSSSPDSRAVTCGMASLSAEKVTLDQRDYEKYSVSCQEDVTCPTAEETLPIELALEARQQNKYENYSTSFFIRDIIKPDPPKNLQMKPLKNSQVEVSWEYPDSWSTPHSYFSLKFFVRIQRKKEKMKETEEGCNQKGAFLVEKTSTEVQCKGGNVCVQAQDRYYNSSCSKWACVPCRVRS
Procedure: as §1, §3

human IL-35 = biological target: T7, human IL-35 (human, UniProt P29459 23-219; Q14213 21-229, limits assumed); assay: as above
T7 construct: subunit make-up is from general knowledge
T7 sequence (looked up) 1: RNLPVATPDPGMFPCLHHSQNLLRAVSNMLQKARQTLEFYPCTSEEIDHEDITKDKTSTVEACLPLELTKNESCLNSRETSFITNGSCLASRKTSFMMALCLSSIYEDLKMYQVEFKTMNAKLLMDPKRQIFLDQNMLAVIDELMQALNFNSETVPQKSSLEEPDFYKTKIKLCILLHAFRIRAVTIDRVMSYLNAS
T7 sequence (looked up) 2: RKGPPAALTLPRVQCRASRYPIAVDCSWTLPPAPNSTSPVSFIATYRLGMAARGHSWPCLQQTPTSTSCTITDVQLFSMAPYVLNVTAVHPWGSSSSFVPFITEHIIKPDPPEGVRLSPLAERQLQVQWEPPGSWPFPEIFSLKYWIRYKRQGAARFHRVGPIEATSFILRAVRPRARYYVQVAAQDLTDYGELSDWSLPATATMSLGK
Procedure: as §1, §3

B1: Antibody I (antibody, human IgG4 S228P, kappa, F234A L235A, V domains shown)
VH: QVQLVQSGAEVKKPGSSVKVSCKASGYKFTRYVMHWVRQAPGQGLEWMGYINPYNDGTNYNEKFKGRVTITADKSTSTAYMELSSLRSEDTAVYYCARNWDTGLWGQGTTVTVSS
VL: DIQMTQSPSSLSASVGDRVTITCKASDHILKFLTWYQQKPGKAPKLLIYGATSLETGVPSRFSGSGSGTDFTLTISSLQPEDFATYYCQMYWSTPFTFGGGTKVEIKR
notes: also called IL-23 Antibody
IC50 (pM), in vitro IL-23 neutralization assay, IL-17 production by murine splenocytes (human IL-23 [1]): 90 pM and 74 pM | IC50 (pM), in vitro IL-23 neutralization assay, IL-17 production by murine splenocytes (cynomolgus monkey IL-23 [2]): 110 pM and 130 pM | Kd (rabbit IL-23): 53 nM | koff (rabbit IL-23): 0.00479 s⁻¹ | kon (rabbit IL-23): 90000 M⁻¹ s⁻¹ | Kd (human IL-23 [3]): 0.021 nM | koff (human IL-23 [3]): 5.2e-05 s⁻¹ | kon (human IL-23 [3]): 2.43e+06 M⁻¹ s⁻¹ | Kd (cynomolgus monkey IL-23 [4]): 0.055 nM | koff (cynomolgus monkey IL-23 [4]): 7e-05 s⁻¹ | kon (cynomolgus monkey IL-23 [4]): 1.28e+06 M⁻¹ s⁻¹ | fold induction of murine keratin-16 after human IL-23 injection (human IL-23 [5]): 1.23 fold induction | binding result (human IL-27): no binding (tested: 500 nM) | binding result (human IL-12): no binding (tested: 333 nM) | binding result (mouse IL-23): no binding (tested: 333 nM) | binding result (human IL-35): no binding (tested: 833 nM)
